Patent US20110059851A1 (MOUNT SINAI SCHOOL OF MEDICINE OF NEW YORK UNIVERSITY, published 2011)

Target: T1, V5-tagged SHOC2^S2G (human SHOC2 Ser2Gly mutant) (human, UniProt Q5RAV5 1-582 (Pongo abelii entry), limits assumed, N-myristoylation at the N-terminal glycine (Gly 2) after excision of the initiator methionine; [3H]myristic acid incorporation shown in Cos-1 cells)
T1 construct: Expressed transiently in Cos-1 cells, with human NMT1 co-transfected, from a V5-tagged human SHOC2 cDNA construct made by site-directed mutagenesis; Tested in cell lysates by co-immunoprecipitation; also called mutant SHOC2; not shown: V5 tag
T1 sequence: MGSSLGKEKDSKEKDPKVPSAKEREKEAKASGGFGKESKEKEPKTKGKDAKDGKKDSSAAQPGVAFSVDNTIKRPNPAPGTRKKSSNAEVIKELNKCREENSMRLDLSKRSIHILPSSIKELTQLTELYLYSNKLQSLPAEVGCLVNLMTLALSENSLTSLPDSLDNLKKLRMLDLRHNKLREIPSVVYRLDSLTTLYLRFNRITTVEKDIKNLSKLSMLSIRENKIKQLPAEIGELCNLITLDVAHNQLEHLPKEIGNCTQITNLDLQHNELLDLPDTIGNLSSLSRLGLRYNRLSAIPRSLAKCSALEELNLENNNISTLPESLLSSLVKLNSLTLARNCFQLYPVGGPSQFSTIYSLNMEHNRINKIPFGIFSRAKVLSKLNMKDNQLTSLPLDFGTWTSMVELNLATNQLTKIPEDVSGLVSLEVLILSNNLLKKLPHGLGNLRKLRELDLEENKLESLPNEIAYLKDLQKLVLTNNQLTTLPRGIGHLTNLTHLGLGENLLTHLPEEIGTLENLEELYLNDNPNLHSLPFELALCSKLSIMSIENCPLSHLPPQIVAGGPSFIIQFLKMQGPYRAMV
Experiment: co-immunoprecipitation (anti-Myc or anti-V5, western blot) and confocal microscopy in COS-1 cells co-transfected with V5- and Myc-tagged proteins

B1: Myc-tagged SHOC2^wt (wild-type human SHOC2) (other)
chain: MSSSLGKEKDSKEKDPKVPSAKEREKEAKASGGFGKESKEKEPKTKGKDAKDGKKDSSAAQPGVAFSVDNTIKRPNPAPGTRKKSSNAEVIKELNKCREENSMRLDLSKRSIHILPSSIKELTQLTELYLYSNKLQSLPAEVGCLVNLMTLALSENSLTSLPDSLDNLKKLRMLDLRHNKLREIPSVVYRLDSLTTLYLRFNRITTVEKDIKNLSKLSMLSIRENKIKQLPAEIGELCNLITLDVAHNQLEHLPKEIGNCTQITNLDLQHNELLDLPDTIGNLSSLSRLGLRYNRLSAIPRSLAKCSALEELNLENNNISTLPESLLSSLVKLNSLTLARNCFQLYPVGGPSQFSTIYSLNMEHNRINKIPFGIFSRAKVLSKLNMKDNQLTSLPLDFGTWTSMVELNLATNQLTKIPEDVSGLVSLEVLILSNNLLKKLPHGLGNLRKLRELDLEENKLESLPNEIAYLKDLQKLVLTNNQLTTLPRGIGHLTNLTHLGLGENLLTHLPEEIGTLENLEELYLNDNPNLHSLPFELALCSKLSIMSIENCPLSHLPPQIVAGGPSFIIQFLKMQGPYRAMV
notes: Expressed transiently in Cos-1 cells from a Myc-tagged human SHOC2 cDNA construct and tested in cell lysates by co-immunoprecipitation; also called wild type SHOC2; wild-type protein; not shown: Myc tag
- binding result: no binding
